The nature of the series: Freeze/thaw stability of recombinant mPAO activity. It counts as physicochemical. The protocol: Using the conditions for the steady-state kinetic assay described below, mPAO was determined to be stable at 2-4 mg/mL when frozen at −20° C. or −80° C. and thawed through several cycles. […] Thus, mPAO was stored at −20° C. in the presence of 33% (v/v) ethylene glycol. Ethylene glycol elimination and buffer exchange was accomplished easily by several concentration/dilution cycles using Centricon-10 centrifuge concentrators.

B1: mPAO: recombinant murine peroxisomal polyamine oxidase (SEQ ID NO:4) produced in E. coli (protein, listed as Mus musculus)
chain: MAFPGPRVLVVGSGIAGLGAAQKLCSHRAAPHLRVLEATASAGGRIRSERCFGGVVELGAHWIHGPSQDNPVFQLAAEFGLLGEKELSEENQLVDTGGHVALPSMIWSSSGTSVSLELMTEMARLFYGLIERTREFLNESETPMASVGEFLKKEISQQVASWTEDDEDTRKRKLAILNTFFNIKCCVSGTHSMDLVALAPFGEYTVLPGLDCILAGGYQGLTDRILASLPKDTVAFDKPVKTIHWNGSFQEAAFPGETFPVLVECEDGARLPAHHVIVTVPLGFSKEHQDTFFEPPLPAKKAEAIKKLGFGTNNKIFLEFEEPFWEPDCQFIQVVWEDTSPLQDTALSLQDTWFKKLIGFLVQPSFESSHVLCGFIAGLESEFMETLSDEEVLLSLTQVLRRVTGNPQLPAAKSVLSSRWHSAPYTRGSYSYVAVGSTGDDLDLMAQPLPADGTGTQLQVLFAGEATHRTFYSTTHGALLSGWREADRLIGLWDSQAEQSRPRL
For the molecule B1, the “stability of activity on freezing and thawing” value (30 μg/mL, several freeze/thaw cycles) is recorded as “activity was lost quickly”; the “stability of activity on freezing and thawing” value (2-4 mg/mL, frozen at −20° C. or −80° C., several cycles) is recorded as “stable”; the “stability of activity on freezing and thawing” value (33% (v/v) ethylene glycol added, 20 μg/mL to 4 mg/mL) was “stable for several cycles of freezing and thawing”.
